This series deals with CBF1 (RBPJK), purified from HeLa (Homo sapiens) (UniProt Q06330). Briefly: competition.
Sequence of CBF1 (RBPJK), purified from HeLa (Homo sapiens) (Q06330 other isoform, or with tags, fused parts or gaps): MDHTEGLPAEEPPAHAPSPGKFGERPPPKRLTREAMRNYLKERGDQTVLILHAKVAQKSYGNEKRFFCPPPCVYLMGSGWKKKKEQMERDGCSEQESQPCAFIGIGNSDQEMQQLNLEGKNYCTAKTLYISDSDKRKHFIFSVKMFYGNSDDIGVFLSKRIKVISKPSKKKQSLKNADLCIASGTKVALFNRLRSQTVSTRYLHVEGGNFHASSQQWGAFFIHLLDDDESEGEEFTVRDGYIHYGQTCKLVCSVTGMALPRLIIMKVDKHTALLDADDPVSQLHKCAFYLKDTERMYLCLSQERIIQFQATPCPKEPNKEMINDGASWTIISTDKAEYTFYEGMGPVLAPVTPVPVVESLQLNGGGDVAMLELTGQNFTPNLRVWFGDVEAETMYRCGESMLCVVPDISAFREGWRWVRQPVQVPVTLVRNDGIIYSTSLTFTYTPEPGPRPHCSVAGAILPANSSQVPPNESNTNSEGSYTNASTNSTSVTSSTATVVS

The sequence “CAAGAGACAGAGTTTCTAAGCTTATTGTAATTTTAAGCATCG (double strand) [Unrelated]” had a binding signal (% reduction at 10 pmol competitor) (0% at all amounts) of 0.

Sequence “GGAAACACGCCGTGGCTAAAAATTTGGG (double strand) [Cp-Mut]” had a binding signal (% reduction at 10 pmol competitor) (0% at 0.1 and 1.0 pmol, approx 250-fold weaker than Cp) of 19.

With “GATGCCATTGGGGATTTCCTCTTTACTG (double strand) [ELAM kB-3]”, the binding signal (% reduction at 10 pmol competitor) (0% at 0.1 and 1.0 pmol) was 14.

For the sequence “GGAAACACGCCGTGGGAAAAAATTTGGC (double strand) [Cp (EBV C-promoter EBNA2 responsive element)]”, under “EMSA competition against Cp probe, 51% at 0.1, 90% at 1.0 pmol”, the binding signal (% reduction at 10 pmol competitor) came to 98.

On to “TCCTTCAGCCCTGTGGGAACTTGCTGCT (double strand) [CD23p]”, for which, under “22% at 0.1, 70% at 1.0 pmol, approx 2.5-fold weaker than Cp”, the binding signal (% reduction at 10 pmol competitor) worked out at 91.

Turning to “GGACTACCACTGTGCCTTCCTCTGGAGG (double strand) [Heptamer-BamHI]”, the binding signal (% reduction at 10 pmol competitor) (0% at 0.1 and 1.0 pmol, additional 40-fold reduction versus Heptamer+BamHI) was found to be 8.

For the sequence “GGACTACCACTGTGGGATCCTCTGGAGG (double strand) [Heptamer+BamHI]”, for the setting “0% at 0.1, 31% at 1.0 pmol, approx 16-fold weaker than Cp”, the binding signal (% reduction at 10 pmol competitor) amounted to 75.

“AAGCATCGTGGATATTCCCGGCACAGCT (double strand) [ELAMp kB-1]” had a binding signal (% reduction at 10 pmol competitor) (0% at 0.1, 8% at 1.0 pmol) of 44.

Regarding “TATATGCCCGGGAAAGTTTTTGTATTCC (double strand) [ELAMp kB-2]”, the binding signal (% reduction at 10 pmol competitor) (2% at 0.1, 27% at 1.0 pmol) amounted to 51.

The values above are taken from patent publication US5679525.
